# Source: patent US20220195063A1 (BYONDIS B V, published 2022)
# T1: cynomolgus SIRPα expressed on cells (cynomolgus monkey, UniProt A0A2K5VYQ9 31-507)
# T1 construct: whole, on cells; also called ExpiCHO-S (cySIRPα)
# T1 sequence: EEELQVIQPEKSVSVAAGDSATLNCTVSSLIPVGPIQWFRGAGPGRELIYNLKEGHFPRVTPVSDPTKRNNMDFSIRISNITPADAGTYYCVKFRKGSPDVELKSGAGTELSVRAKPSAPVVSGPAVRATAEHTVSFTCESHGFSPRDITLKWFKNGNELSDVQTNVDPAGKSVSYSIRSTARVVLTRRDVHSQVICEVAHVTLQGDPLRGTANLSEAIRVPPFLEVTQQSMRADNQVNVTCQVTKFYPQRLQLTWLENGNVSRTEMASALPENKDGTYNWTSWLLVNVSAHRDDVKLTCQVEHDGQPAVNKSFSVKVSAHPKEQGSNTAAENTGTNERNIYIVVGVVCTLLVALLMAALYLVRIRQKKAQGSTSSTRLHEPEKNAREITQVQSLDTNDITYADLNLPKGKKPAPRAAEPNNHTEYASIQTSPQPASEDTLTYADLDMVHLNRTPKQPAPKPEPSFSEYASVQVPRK
# T2: cynomolgus SIRPα (cySIRPα), protein antigen (cynomolgus monkey, UniProt A0A2K5VYQ9 31-369)
# T2 construct: Coated on the plate in ELISA
# T2 sequence: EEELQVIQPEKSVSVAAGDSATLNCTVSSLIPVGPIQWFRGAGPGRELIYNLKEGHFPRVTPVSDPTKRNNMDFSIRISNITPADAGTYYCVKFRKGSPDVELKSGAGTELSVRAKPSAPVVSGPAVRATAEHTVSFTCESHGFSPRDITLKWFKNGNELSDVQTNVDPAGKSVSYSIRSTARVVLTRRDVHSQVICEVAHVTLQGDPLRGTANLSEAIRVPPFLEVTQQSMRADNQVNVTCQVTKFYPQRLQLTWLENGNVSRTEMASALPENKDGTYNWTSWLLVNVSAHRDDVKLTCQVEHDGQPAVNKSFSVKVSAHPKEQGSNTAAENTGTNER
# Legend:
# [1] = target: human SIRPαBIT expressed on cells (human) (UniProt P78324); assay: flow cytometry, ExpiCHO-S cells
# human SIRPαBIT expressed on cells (human), sequence (P78324 31-504): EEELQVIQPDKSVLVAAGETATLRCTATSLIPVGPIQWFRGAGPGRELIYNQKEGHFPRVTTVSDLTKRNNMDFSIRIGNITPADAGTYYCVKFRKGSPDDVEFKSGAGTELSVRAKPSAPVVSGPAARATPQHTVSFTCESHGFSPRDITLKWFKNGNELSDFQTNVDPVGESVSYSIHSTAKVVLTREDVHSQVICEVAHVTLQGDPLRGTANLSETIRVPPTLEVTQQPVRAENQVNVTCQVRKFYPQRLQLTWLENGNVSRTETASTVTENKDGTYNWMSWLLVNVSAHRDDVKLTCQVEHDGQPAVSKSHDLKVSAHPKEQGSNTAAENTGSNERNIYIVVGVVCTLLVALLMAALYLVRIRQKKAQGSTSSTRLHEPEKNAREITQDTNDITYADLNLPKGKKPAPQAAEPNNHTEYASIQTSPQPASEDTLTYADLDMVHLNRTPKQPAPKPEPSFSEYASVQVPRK
# [2] = target: human SIRPαBIT (huSIRPαBIT), protein antigen (human) (UniProt P78324); assay: SPR, biotinylated antigen captured, 25 C
# human SIRPαBIT (huSIRPαBIT), protein antigen (human), sequence (P78324 31-370): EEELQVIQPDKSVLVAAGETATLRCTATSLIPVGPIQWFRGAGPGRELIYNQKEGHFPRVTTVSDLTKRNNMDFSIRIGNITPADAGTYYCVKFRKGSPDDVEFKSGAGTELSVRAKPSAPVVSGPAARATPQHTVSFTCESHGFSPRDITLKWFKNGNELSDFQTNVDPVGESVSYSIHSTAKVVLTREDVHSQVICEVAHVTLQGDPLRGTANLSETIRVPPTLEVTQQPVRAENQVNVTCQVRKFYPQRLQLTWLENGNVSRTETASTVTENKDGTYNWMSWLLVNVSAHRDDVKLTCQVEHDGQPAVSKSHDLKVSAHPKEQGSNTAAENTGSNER
# [3] = target: T3, human SIRPγ (huSIRPγ) (human, UniProt Q9P1W8 29-360, limits assumed, biotinylated in the SPR assay); assay: SPR, biotinylated antigen captured, 25 C
# T3 construct: Coated on the plate in ELISA, biotinylated and captured in SPR
# T3 sequence (Q9P1W8 29-360 limits assumed): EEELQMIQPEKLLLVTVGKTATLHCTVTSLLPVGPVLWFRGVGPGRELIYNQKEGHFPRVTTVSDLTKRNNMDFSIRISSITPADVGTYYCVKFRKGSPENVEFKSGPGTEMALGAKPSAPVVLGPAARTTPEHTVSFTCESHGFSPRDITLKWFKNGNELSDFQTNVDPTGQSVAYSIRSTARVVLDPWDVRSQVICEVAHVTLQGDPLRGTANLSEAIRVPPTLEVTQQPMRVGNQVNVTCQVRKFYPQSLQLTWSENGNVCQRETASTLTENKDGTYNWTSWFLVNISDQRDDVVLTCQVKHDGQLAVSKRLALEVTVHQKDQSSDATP
# Experimental: (§1) Surface Plasmon Resonance (SPR) assay: Affinity analysis was performed by single cycle kinetics analysis on a Surface Plasmon Resonance apparatus (Biacore T200 system, GE Life Sciences) at 25° C. Biotinylated SIRP antigens were captured on the surface of a chip suitable for biotinylated molecules (Sensor Chip CAP, GE Life Sciences) by injecting 5 μg/ml of the SIRP antigen in running buffer (10 mM HEPES buffer at pH 7.4 with 150 mM NaCl, 3 mM EDTA and 0.005% v/v polyoxyethylene (20) sorbitan monolaurate (Surfactant P20) for 60 sec at 10 μL/min after injection of a streptavidin conjugate (20× diluted biotin CAPture reagent, GE Life Sciences) for 60 sec at 10 μl/min. Baseline stabilization was set at 1 min after which five increasing concentrations of an anti-SIRP antibody in running buffer (10 mM HEPES buffer at pH 7.4 with 150 mM NaCl, 3 mM EDTA and 0.005% v/v polyoxyethylene (20) sorbitan monolaurate) were injected. For each step an association time of 150 sec was used, followed by a dissociation time of 1200 sec at the highest concentration only, all at a flow rate of 30 μL/min. Regeneration was performed with 6 M guanidine-HCl, 0.25 M NaOH solution (60 sec with flow rate of 30 μL/min). Double blank subtraction was performed on the observed sensorgrams using a non anti-SIRP (blank) immobilized reference flow channel and running buffer injection. Sensorgrams were fitted with a 1:1 Langmuir model for all tested anti-SIRP antibodies. The kinetic parameters (kₐ, kd and KD) were calculated using the Biacore T200 evaluation software (v3.1).
# [4] = target: T4, human SIRPα1 (huSIRPα1), protein antigen (human, UniProt P78324 31-370, limits assumed, biotinylated in the SPR assay); assay: SPR, biotinylated antigen captured, 25 C
# T4 construct: Coated on the plate in ELISA, biotinylated and captured in SPR; also called v2
# T4 sequence (P78324 other isoform, or with tags, fused parts or gaps limits assumed): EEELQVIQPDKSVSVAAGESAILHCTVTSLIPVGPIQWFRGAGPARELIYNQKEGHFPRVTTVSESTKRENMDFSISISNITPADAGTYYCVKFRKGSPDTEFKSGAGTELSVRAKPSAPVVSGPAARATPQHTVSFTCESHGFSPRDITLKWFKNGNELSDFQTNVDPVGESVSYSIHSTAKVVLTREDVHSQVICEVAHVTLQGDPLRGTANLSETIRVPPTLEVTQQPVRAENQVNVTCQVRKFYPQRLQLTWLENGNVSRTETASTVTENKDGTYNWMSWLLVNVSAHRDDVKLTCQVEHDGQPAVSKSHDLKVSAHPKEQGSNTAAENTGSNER
# Experimental: as §1
# [5] = target: human SIRPαBIT expressed on cells (human) (UniProt P78324); assay: flow cytometry, U937 cells
# [6] = target: T5, human SIRPα1 expressed on cells (human, UniProt P78324 31-504); assay: flow cytometry, ExpiCHO-S cells
# T5 construct: whole, on cells; also called ExpiCHO-S (huSIRPα1); CHO cells expressing huSIRPα1
# T5 sequence (P78324 other isoform, or with tags, fused parts or gaps limits assumed): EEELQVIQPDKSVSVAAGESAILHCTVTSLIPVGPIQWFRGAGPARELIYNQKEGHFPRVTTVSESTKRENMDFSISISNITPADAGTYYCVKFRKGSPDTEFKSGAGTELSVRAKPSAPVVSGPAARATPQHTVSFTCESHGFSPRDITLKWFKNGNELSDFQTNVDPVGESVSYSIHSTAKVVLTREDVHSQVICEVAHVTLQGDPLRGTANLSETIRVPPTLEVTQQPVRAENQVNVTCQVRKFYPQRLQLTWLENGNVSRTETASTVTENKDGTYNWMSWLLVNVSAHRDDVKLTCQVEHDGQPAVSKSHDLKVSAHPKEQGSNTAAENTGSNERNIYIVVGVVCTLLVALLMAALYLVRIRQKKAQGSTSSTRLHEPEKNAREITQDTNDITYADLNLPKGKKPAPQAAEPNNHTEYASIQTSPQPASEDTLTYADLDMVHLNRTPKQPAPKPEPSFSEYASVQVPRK
# From the text: (§2) Flow Cytometry: U937 cells endogenously expressing human SIRPαBIT antigen and cells derived from a non-engineered subclone that has been screened and isolated from CHO-S Chinese hamster ovary cells (ExpiCHO-S) cells expressing human SIRPα₁, SIRPαBIT or cySIRPα antigen (100,000 cells/well in a 96-well plate) were washed three times with ice-cold FACS buffer (1×PBS (LONZA) containing 0.2% v/w BSA (Sigma-Aldrich, St. Louis, Mo.) and 0.02% v/w NaN₃ (Sigma-Aldrich), followed by the addition of a concentration range of each primary mAb (50 μL/well) diluted in ice-cold FACS buffer. After an incubation time of 30 min at 4° C., the cells were washed three times with ice-cold FACS buffer and 50 μL/well secondary mAb (AffiniPure F(ab′)₂ fragment Goat-anti-human IgG-APC, 1:6,000 dilution, Jackson Immuno Research) was added. After 30 min at 4° C., cells were washed twice and resuspended in 150 μL FACS buffer. Fluorescence intensities were determined by flow cytometry (BD FACSVerse, Franklin Lakes, N.J.) and indicated as the median fluorescence intensity (MFI-Median) for U937 cells and ExpiCHO-S cells. Curves were fitted by nonlinear regression using the sigmoidal dose-response equation with variable slope (four parameters) in GraphPad Prism (version 7.02 for Windows, GraphPad, San Diego, Calif.). EC₅₀ values were calculated as the concentration in μg/mL that gives a response half way between bottom and top of the curve, when using a 4-parameter logistic fit.
# [7] = target: T1, cynomolgus SIRPα expressed on cells; assay: flow cytometry, ExpiCHO-S cells
# From the text: as §2
# [8] = target: T6, human SIRPβ1v2 (huSIRPβ1v2) (human, UniProt Q5TFQ8 30-371); assay: ELISA, antigen coated
# T6 construct: Coated on the plate in ELISA; Only the Ensembl protein number is printed; also called huSIRPß1v2
# T6 sequence (Q5TFQ8 30-371 limits assumed): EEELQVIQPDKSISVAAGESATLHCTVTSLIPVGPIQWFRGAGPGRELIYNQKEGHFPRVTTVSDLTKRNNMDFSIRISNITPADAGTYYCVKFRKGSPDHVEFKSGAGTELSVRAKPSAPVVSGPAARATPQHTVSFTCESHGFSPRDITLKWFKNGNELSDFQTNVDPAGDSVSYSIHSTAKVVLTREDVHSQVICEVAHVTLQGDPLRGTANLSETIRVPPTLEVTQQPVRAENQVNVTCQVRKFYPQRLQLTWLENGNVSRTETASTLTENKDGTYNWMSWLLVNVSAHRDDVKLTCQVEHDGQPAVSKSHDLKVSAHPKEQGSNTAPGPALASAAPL
# Experimental: (§3) ELISA assay: Solutions of huSIRPα₁, huSIRPαBIT, huSIRPβ₁ᵥ₁, huSIRPβ₁ᵥ₂, huSIRPγ and cySIRPα in phosphate buffered saline (PBS) were each added to a multiple well black polystyrene plate for ELISA and allowed to adhere for 1 h at RT. Unbound protein was removed with three washing steps using standard washing buffer. Subsequently, blocking buffer was added to the wells. After 1 h incubation at RT, the wells were washed three times with standard washing buffer. The antibodies in buffer at various concentrations were added to the wells and incubated at RT for 1 h. Unbound antibodies were removed with three washing steps using standard washing buffer. Goat anti human IgG (Fab′)₂:horse radish peroxidase (HRP) in buffer was added to the wells and incubated at RT for 1 h. 3,3′,5,5′-Tetramethylbenzidine (TMB) was added and after sufficient colour development HCl was added. Absorbance was read at 450 nm/620 nm.
# [9] = target: T3, human SIRPγ (huSIRPγ); assay: ELISA, antigen coated
# Experimental: as §3
# [10] = target: T2, cynomolgus SIRPα (cySIRPα), protein …; assay: ELISA, antigen coated
# Experimental: as §3
# [11] = target: T4, human SIRPα1 (huSIRPα1), protein antigen; assay: ELISA, antigen coated
# Experimental: as §3
# [12] = target: human SIRPβ1v1 (huSIRPβ1v1) (human) (UniProt O00241); assay: ELISA, antigen coated
# human SIRPβ1v1 (huSIRPβ1v1) (human), sequence (O00241 30-371): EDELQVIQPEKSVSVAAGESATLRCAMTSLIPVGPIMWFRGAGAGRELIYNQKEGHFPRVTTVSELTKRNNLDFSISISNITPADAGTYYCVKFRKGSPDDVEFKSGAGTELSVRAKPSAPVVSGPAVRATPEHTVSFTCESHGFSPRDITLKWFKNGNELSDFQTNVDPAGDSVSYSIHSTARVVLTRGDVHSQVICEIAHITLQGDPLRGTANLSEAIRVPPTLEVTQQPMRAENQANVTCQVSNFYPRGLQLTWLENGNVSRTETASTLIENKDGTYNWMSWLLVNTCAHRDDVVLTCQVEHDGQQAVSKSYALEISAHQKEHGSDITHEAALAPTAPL
# [13] = target: human SIRPαBIT (huSIRPαBIT), protein antigen (human) (UniProt P78324); assay: ELISA, antigen coated
# [14] = target: T3, human SIRPγ (huSIRPγ); assay: ELISA, antigen coated; ELISA (Table 2); finite EC50, below the 100,000 ng/ml cap
# Experimental: as §3
Binder,EC50 [1],Kd [2],binding result [3],Kd [4],EC50 [5],EC50 [6],EC50 [7],EC50 [8],EC50 [9],EC50 [10],EC50 [11],EC50 [12],EC50 [13],EC50 [14]
"anti-SIRPα antibody 10 humanized (antibody, human IgG1, kappa, L234A L235A, V domains shown, Humanized, human IgG1 LALA / kappa) VH: KVEESGGGLVQPGGSLRLSCAASGFSLSSYVMGWVRQAPGKGLEWVSIISSSGSPYYASWVNGRFTISKDNSEGMVYLQMNSLRAEDTAVYYCARVGPLGVDYFNIWGQGTTVTVSS VL: DIVMTQSPDSLAVSLGERATINCQAGQSINSYLAWYQQKPGQPPKLLIYYASTLESGVPDRFSGSGSGTDFTLTISSLQAEDVAVYYCQSWHYISRSYAFGGGTKLEIKR",0.2 µg/mL,< 0.01 nM,no binding,3.2 nM,0.17 µg/mL,0.38 µg/mL,0.27 µg/mL,,,,,,,
"anti-SIRPα antibody 11 humanized (antibody, human IgG1, kappa, L234A L235A, V domains shown, Humanized, human IgG1 LALA / kappa) VH: EVKVEESGGGLVQPGGSLRLSCAASGFSLSSYVMGWVRQAPGKGLEWVSIISSSGSPYYASWVNGRFTISKTSTTMDLQMNSLRAEDTAVYYCARVGPLGVDYFNIWGQGTTVTVSS VL: DIQMTQSPSSLSASVGDRVTITCQAGQSINSYLAWYQQKPGKVPKLLIYYASTLESGVPSRFSGSGSGTDFTLTISSLQPEDVATYYCQSWHYISRSYAFGQGTKVEIKR",0.3 µg/mL,0.14 nM,no binding,41 nM,0.13 µg/mL,1.05 µg/mL,0.32 µg/mL,,,,,,,
"anti-SIRPα antibody 4 (antibody, human IgG1, kappa, L234A L235A, V domains shown, Chimeric: rabbit variable regions on human IgG1 LALA / kappa; also called chimeric antibody 4) VH: QSVEESGGRLGTPGTPLTLTCTVSGFSLSSYVMGWFRQAPGKGLEYIGIISSSGSPYYASWVNGRFTISKTSTTMDLKMNSPTTEDTATYFCARVGPLGVDYFNIWGPGTLVTVSL VL: DIVMTQTPSSVEAAVGGTVTIKCQAGQSINSYLAWYQQKPGQRPKLLIYYASTLESGVPSRFKGSGSGTDYTLTISDLESADAATYYCQSWHYISRSYAFGGGTEVVVKR",0.23 µg/mL,< 0.01 nM,,0.026 nM,0.12 µg/mL,0.41 µg/mL,0.18 µg/mL,0.092 µg/mL,> 100 µg/mL,0.099 µg/mL,0.053 µg/mL,> 100 µg/mL,0.025 µg/mL,
"anti-SIRPα antibody 12 humanized (antibody, human IgG1, kappa, L234A L235A, V domains shown, Humanized, human IgG1 LALA / kappa) VH: VQLVESGGRLVQPGTPLTLSCTVSGFSLSSYVMGWFRQAPGKGLEYIGIISSSGSPYYASWVNGRFTISKTSTTMDLKMNSLRSEDTATYFCARVGPLGVDYFNIWGPGTLVTVSS VL: DIVMTQTPSSVEAAVGGTVTIKCQAGQSINSYLAWYQQKPGQRPKLLIYYASTLESGVPSRFKGSGSGTDYTLTISDLESADAATYYCQSWHYISRSYAFGGGTEVVVKR",0.46 µg/mL,< 0.01 nM,no binding,0.059 nM,0.2 µg/mL,0.1 µg/mL,0.17 µg/mL,,,,,,,
"anti-SIRPα antibody 3 (antibody, human IgG1, kappa, L234A L235A, V domains shown, Rabbit variable regions on human IgG1 LALA / kappa) VH: QSVEESGGRLVTPGTPLTLACTVSGFSLISYYISWVRQAPEKGLEYIGIINIGGGASYASWAKGRFTISKTSTTVDLKITSPTPEDTATYFCAMSYGMDTGAFNIWGPGTLVTVSL VL: AQVLTQTPASVSAAVGGTVTISCQSSESVYKNNFLSWYQQKPGKPPKLLIYGASTLASGVPSRFKGSGSGTQFTLTISDLESDDAATYFCQGGYRTDIYPFGGGTEVVVKR",,,,,0.22 µg/mL,,,0.089 µg/mL,,0.036 µg/mL,0.015 µg/mL,> 100 µg/mL,0.024 µg/mL,5.22 µg/mL
"anti-SIRPα antibody 13 humanized (antibody, human IgG1, V domains shown, Humanized, human IgG1 LALA / kappa) VH: RQLVESGGGLVQPGGSLRLSCTASGFSLSSHGISWVRQAPGKGLEYIGTIGTGVITYFASWAKGRFTGSKTSSTAYMELSSLRSEDTAVYFCARGSAWNDPFDPWGQGTLVTVSS VL: AIQMTQSPSSLSASVGDRVTITCQASQSVYGNNDLAWYQQKPGKAPKLLIYLASTLATGVPSRFSGSGSGTDFTLTISSLQPEDFATYYCLGGGDDEADNVFGGGTKVEIKR",0.23 µg/mL,0.012 nM,no binding,< 0.01 nM,0.14 µg/mL,0.36 µg/mL,0.44 µg/mL,,,,,,,
"anti-SIRPα antibody 14 humanized (antibody, human IgG1, V domains shown, Humanized, human IgG1 LALA / kappa) VH: RQLVESGGGLVQPGGSLRLSCTASGFSLSSHGISWVRQAPGKGLEYIGTIGTGVITYFASWAKGRFTGSKTSSTAYMELSSLRSEDTAVYFCARGSAWNDPFDPWGQGTLVTVSS VL: DIEMTQSPSSVSASVGDRVTLTCQASQSVYGNNDLAWYQQKPGQAPKLLIYLASTLATGVPSRFSGSGSGTDFTLTISSLQPEDFATYYCLGGGDDEADNVFGGGTKVEIKR",0.29 µg/mL,0.089 nM,no binding,< 0.01 nM,0.22 µg/mL,0.37 µg/mL,0.38 µg/mL,,,,,,,
